Source: US20090011979A1 (published 2009)

Tests used:
mouse IL-18 = target: T1, mouse IL-18 (mouse, UniProt P70380 36-192); test: SPR
T1 chain: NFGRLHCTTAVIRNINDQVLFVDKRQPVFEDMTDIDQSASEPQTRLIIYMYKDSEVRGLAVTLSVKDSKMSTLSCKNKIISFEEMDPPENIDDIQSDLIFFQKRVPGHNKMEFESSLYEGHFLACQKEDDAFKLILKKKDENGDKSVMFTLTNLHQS

human IL-18 = human IL-18 (human, UniProt Q14116 37-193); test: SPR
human IL-18, sequence (Q14116 37-193): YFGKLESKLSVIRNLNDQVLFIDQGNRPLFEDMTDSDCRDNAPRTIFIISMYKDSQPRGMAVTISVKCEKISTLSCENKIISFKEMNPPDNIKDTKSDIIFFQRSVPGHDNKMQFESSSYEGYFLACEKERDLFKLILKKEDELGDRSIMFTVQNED

B1: untagged YCI (YMTV IL-18 bp, YMTV Cytokine Inhibitor, without tag) (other)
chain: EKECDKHRSVNIQVPMKETSEVLLRCTGSSYFKHFSYVYWLVGESETVDQLQQNSGYGETSHPSKPHECGNLPSADLVLTNMTEKMRDTKLTCVLMDPDGHIDESLVLREVWDCFNKT
In the case of B1, the Kd (mouse IL-18) is reported as 7.6 nM and the Kd (human IL-18) is reported as 8.13 nM.
